Measurements taken from the DeepSol protein solubility set.

Assay: soluble on expression in E. coli; label from the status in PepcDB or PDB records

| Sequence | soluble on expression in E. coli |
| --- | --- |
| MGSDKIHHHHHHMDDITPSDIQAQAIAAIRDWFHSRTDEQQVFRLFGFAGTGKSTVLKFALDDLGLSPHAEDRPGVVTATFTGKAALVLRRKGTPARTIHSLIYSVIEATDEEIEEAGKRITQAELNARGLIGFDRTAAEAAIEAMRQTLRDMKKPRFALNPDSPAASAKLIVLDEVSMVGDEMARDLMSFERPILVLGDPGQLPPIKGEGAFTQAAPDIMLTEIHRQAAESAIIRLATMAREGQPIGFGQYDDHAWKMRMADVTPQQALRGGQVICGRNTTRFQLNNALRRAAGFGGSYLPTGADEKVICLKNQNDLGLINGMFLTLADIVDEGSVYFSATVTDEVGTPIGPPAKDGKPGRLMLYKGHFEDHVALDPHRHDRDWRDKKKLTEATFGWAITCHKAQGSQWENVIVWDDGLGRTEQDRRRWLYTAITRAERGLVILA | not soluble |
| MIPEPDILVVGGGLGGVAAALAACRAGRSVVLTEETDWIGGQLTSQAVPPDEHPWVEQFGTTATYRRLREGIRQYYRQWYPLRAEAAALTDLNPGAGRVSKLCHEPRVALAVLEGMLAPHRAAGRLTVLTEHRPVAAETDNDVVRAVTLEDLRDGTRRTVPARYVLDATETGELLHLAGVEHVNGAESRAEFDEPHAPDRAQPGNQQGITVCFALSHHEGEDHTIDRPADYDFWRDYKPDFWPGPLLGFEAPDPRTLEPVPRTFEPNPDLDPLAVSADQSADAGDKELWGFRRILARKLHTDGAFDSDITLVNWPLNDYWLKPYIGQEAEALREARQLSLSVLYWLQTEAPRTDGGTGFPGLRPRPDVTGTADGLAKAAYVRESRRIKAVTTVTEHDVSIDLLGPYGRTRHRDSVGVGNYRIDLHPSTGGDGYVDIGSVPFEIPLGALVPRRVRNLLPAGKNLGTTHITNGCYRLHPVEWNVGEVAGALAAHCLAEDVEPHQVQAEDKRFEEFARVLDHDGVQRHWPDVRGYLEHHHHHH | not soluble |
| MGNQCQNGTLGSDYHNRFPREHAVGYVQGDSYLDLKKFDDTWPEVNNFKPTAASILRRGLDPTSINVLGRKTADLREHYIIGRKLGQGQFGTTYLCTEINTGCEYACKTIPKRKLITKEDVEDVRREIQIMHHLSGHKNVVAIKDVYEDGQAVHIVMELCAGGELFDRIQEKGHYSERKAAELIRIIVSIVAMCHSLGVMHRDLKPENFLLLDKDDDLSIKAIDFGLSVFFKPGQAFTELVGSPYYVAPEVLHKRYGPESDVWSAGVILYVLLSGVPPFWAETQQGIFDAVLKGHIDFQSDPWPKISDSAKDLIRKMLSHCPSERLKAHEVLRHPWICENGVATDQALDPSVISRLKQFSAMNKLKKLALRVIAERLSEEEIAGLREMFKAVDTKNRGVITFGELREGLRRFGAEFKDTEIGDIMEAAHNDNNVTIHYEEFIAATLPLNKIEREEHLLAAFTYFDKDGSGYITVDKLQRACGEHNMEDSLLEEIISEVDQNNDGQIDYAEFVAMMQGSNVGLGWRTMESSLNVALRDAPQVH | not soluble |
| MYSKIEGSIITARFDKETDFFTDLVDLCNKYEVKSGTVLWAIGMLKEFQIGYWNGNDYEKETFRERLELVSLHGSIAENDPRFHIHAAGARGNHGIVGGHLFSAKVDPLVEIQIMKITGFSMSRELDNSDGLYKLVIKLEHHHHHH | not soluble |
| MESDTSRTPYNSIYATLKNKKTDGEVVCCVHGRRCSYGKGNQDGKRDDNQYVNLPFLKNQDQIASKLTGKLNKLKIAEEKENKIVPREKPEMMSLNTLVEIARAGEQPRKGRGDKEKRTKKAPVLVDDSQLYVMIGPPSEHPGEPPASEPTETYKTNTIDESTFKGSEALSAYIGVVTLANAENHLTRRGEFALYHLFNPNGRLDTITDKLPLMIVYRTTTKKNRHYSIRTTCDQQFFVDCGYPNVRKHYSLSHLVMFYKTSATCEINPDDTSADSFSWWLE | not soluble |
| MGTEVSTSPTSLIDQTVVPGDVVLDLSNMTNQTIKLGSGLRQDNEVISVMRAGKLRYSKPNKYWVESSHKRYVPRPEDHVLGIVVDCKGENYWIDIKGPQLALLPVLAFEGANRRNYPKFEVSTLLYTRVVKTNTGMNPELSCVDESGKAAGFGPLKDGFMFETSTGLSRMLLSSPTCPVLEALGKKLSFETAFGLNGRCWVHAAAPRIVIIVANALMNSETLSGTQQRIMVEKLLEKISD | soluble |
| MKIALMMENSQAAKNAMVAGELNSVAGGLGHDVFNVGMTDENDHHLTYIHLGIMASILLNSKAVDFVVTGCGTGQGALMSCNLHPGVVCGYCLEPSDAFLFNQINNGNAISLAFAKGFGWAGELNVRYIFEKAFTGKRGEGYPIERAAPQQANAAILNNVKAAVAKDVVEGLRAIDQELVKTAVGSTQFQECFFAHCQVPEIAEYVKSLLD | soluble |
| MGHHHHHHSHAAMAVEPTQIQLSKRWREIESKFAQFRRLNFAQIHTVREETMMVMTEDMPLEISYVPSTYLTEITHVSQALLEVEQLLNAPDLCAKDFEDLFKQEESLKNIKDSLQQSSGRIDIIHSKKTAALQSATPVERVKLQEALSQLDFQWEKVNKMYKDRQGRFDRSVEKWRRFHYDIKIFNQWLTEAEQFLRKTQIPENWEHAKYKWYLKELQDGIGQRQTVVRTLNATGEEIIQQSSKTDASILQEKLGSLNLRWQEVCKQLSDRKKRLEEQKNILSEFQRDLNEFVLWLEEADNIASIPLEPGKEQQLKEKLEQVKLLVEELPLRQGILKQLNETGGPVLVSAPIS | not soluble |
| MKIQELKLFNGLTEDELQRSLVCSQSNIVEYEKDDYIFSQGERPRWIYMILSGEVLLEQINMAGRQTYAEYLGERQQFGVVDLFLKRKQYSYSARARSHVKLLKISSHFFYGTCENNCMHHSKILFNMMGVFAEEAEKKSKKIQLLTCGSLRQRIALYLLQNSGENKKVELMMNREELAASLNAARPSLSRELSQMQDEGIIKMEGRKSIKILDYSRLQEDLADVSD | not soluble |
| MGSDKIHHHHHHMAQHEMSPRANSETDTVVLDAPGKSVYESLCEKINLTPVKATRPMESFQSADALSESSLDERVAQAMTVFLKMIQDSSQQVDRLDKSLLDFHIAHLDQQISQQLDAIMHHETFQQIESAWRGLKFLVDRTDFRKNVKIEVLDVSKDALRQDFEDTPELIQSGLYLHTYIQEYDTPGGEPVGSIISNYEFDRSQQDIVLLRNISKVSAAAHMPFIGSVSPKFFGKDSMDEVASIRDIGNYFDRAEYLKWKSFRDSDDARYIGLTLPRFLARLPYGPDTVPVRAFNYTEAVKGPDHSRYLWGNASFAFAVNMVQSFIKNGWCVQIRGPQAGGLVEDLPIHLYDLGTGNQAKIPTEVLIPETREFEFANLGFIPLSYYKNHDFACFFSAHSAQKPALYDTKEATANSRVNARLPYIFLLSRIAHYLKLIQRENIGTTKDRRVLELELNTWIKTLVTEMTDPGDELQASHPLREAKVIVEDIEDNPGFFRVKLFIVPHFQIEGMDINLSLVSQMPKAKTDRLLSASTAI | not soluble |
| NMAGMNDKASMNDKASMTVKINESLPQGNGKALGTVTVTETAYGLLFTPHLTGLAPGIHGFHLHEKPSCAPGMKDGKAVPALAAGGHLDPNKTGVHLGPYNDKGHLGDLPGLVVNADGTATYPVLAPRLKSLSEVKQHALMIHAGGDNYSDHPMPLGGGGARMACGVIE | soluble |
| MAHHHHHHMGKAAKGRTAMPGKLDTTEADKRTPKSIIIYRGEVGIHVRSLMHEWRNVFLPWSSKKLHGKNKSLKDFLAVAATFSASHLQLFTAPSQGTSLRIMRFFNGPTLSFRVLSFTLHKEIVAKQRRPVAVDRAAWEVAPIVVLNNFTHPDLAHRAEVPLLTATFKALFPSLNVQTIQSSEIQRICLFHYDHVEHVVEVRHYYINARTVGVTKTVKKLLENRRPTKLGTLESIDEVLDREDAWSDTDG | not soluble |
| GSRSEPAKVVDIRIDTSAERKPISPYIYGSNQELDATVTAKRFGGNRTTGYNWENNFSNAGSDWLHYSDTYLLEDGGVPKGEWSTPASVVTTFHDKALSKNVPYTLITLQAAGYVSADGNGPVSQEETAPSSRWKEVKFEKGAPFSLTPDTEDDYVYMDEFVNYLVNKYGNASTPTGIKGYSIDNEPALWSHTHPRIHPDNVTAKELIEKSVALSKAVKKVDPYAEIFGPALYGFAAYETLQSAPDWGTEGEGYRWFIDYYLDKMKKASDEEGKRLLDVLDVHWYPEARGGGERICFGADPRNIETNKARLQAPRTLWDPTYIEDSWIGQWKKDFLPILPNLLDSIEKYYPGTKLAITEYDYGGGNHITGGIAQADVLGIFGKYGVYLATFWGDASNNYTEAGINLYTNYDGKGGKFGDTSVKCETSDIEVSSAYASIVGEDDSKLHIILLNKNYDQPTTFNFSIDSSKNYTIGNVWAFDRGSSNITQRTPIVNIKDNTFTYTVPALTACHIVLEAAEP | soluble |
| CSEVNVVKERPKTDEHKSYSCSFKGCTDVELVAVICPYCEKNFCLRHRHQSDHDCEKLEVAKPRMAATQKLVR | soluble |
| MGSDKIHHHHHHMNNKDLWIKEEIIWSEHKCIRFAAGGYEALIIPDVGGNVVELKDTNKGVTILRTPKKDLKFEDFKNRPQVYGLPVLFPPNRIDDGTFKLGDKTYKFPINEAKNNNYIHGFIKNSKWTVHKKKIDQDKALVEVVFDFTKENEAYKYFSHEFQFKLSYELSSKGLKQTTSVVNLSSEEMPLSVGYHSAFNVPFIEGSEDSNCRVKISIDKFWKQDSRNLPTGESFAPTGEQKEYLENGVAVASHPIESLFSLKDIDVNGKTFRGACIEDASKNTRVVYEMSSEYKYLVIWNDMGDKKYACIEPQTSIINSPNVKLDRSVSGFKTLKPNESWSGVCKLYIENM | not soluble |
| GAMGSIQENLIFPMDNPKGIDGFTNLKEKDIATNENKLLRTITADKMIPAFLITPISSQIAGKVIAQVESDIFAHMGKAVLIPKGSKVIGYYSNNNKMGEYRLDIVWSRIITPHGINIMLTNAKGADIKGYNGLVGELIERNFQRYGVPLLLSTLTNGLLIGITSALNNRGNKEGATNFFGDYLLMQLMRQSGMGINQVVNQILRDKSKIAPIVVIREGSRVFISPNTDIFFPIPRENEVIAEFLK | soluble |
| MSLTTMVPTVMNTPTRIEAGRQKFLIFDAPSQENLPAYIEEMRAYEVTDLVRTCERTYDDKTVLASGIRPHELIFPDGEAPPDDVIDEWLTLCNAVSQQRGAIAIHCVAGLGRAPVLVAIALIEKGMDPMDAIMFIRERRKGAINRRQLQFLKGYKRRSNYKEGHHHHHH | soluble |
| MGARVTRALRNFNVEKRAEREISKRKPSMAPKHPSTRDLLQEHRSQYPEIEEVVSKKDNKLLSLLRDVYVDSKDPVPALPVKVEPRQEPKEFRLPIGNHFDKNITDIPKGKITVVEALTLLNNHKLSPETWTAEKIAQEYYLELKDVNSLLKYFVTFEVKILPPEDRKAIQSK | soluble |
| MSEKLQVVTLLGSLRKGSFNGMVARTLPKIAPASMEVNALPSIADIPLYDADVQQEEGFPATVEALAEQIRQADGVVIVTPEYNYSVPGGLKNAIDWLSRLPDQPLAGKPVLIQTSSMGVIGGARCQYHLRQILVFLDAMVMNKPEFMGGVIQNKVDPQTGEVIDQGTLDHLTGQLTAFGEFIQRVKI | not soluble |
| MERVYRTDLKLLRYFLAVAEELHFGRAAARLNMSQPPLSIHIKELENQLGTQLFIRHSRSVVLTHAGKILMEESRRLLVNANNVLARIEQIGRGEAGRIELGVVGTAMWGRMRPVMRRFLRENPNVDVLFREKMPAMQMALLERRELDAGIWRMATEPPTGFTSLRLHESAFLVAMPEEHHLSSFSTVPLEALRDEYFVTMPPVYTDWDFLQRVCQQVGFSPVVIREVNEPQTVLAMVSMGIGITLIADSYAQMNWPGVIFRPLKQRIPADLYIVYETQQVTPAMVKLLAALTQ | soluble |
